Consider six sequences from the supplement of paper PMC5998384.

The test system of data set [1] is HeLa Kyoto. As to the kind of experiment: melting temperature (median over replicates), in situ; higher = more thermally stable.
Data set [2] relates to HeLa Kyoto. In words: thermal stability score vs G1/S (z-score of summed log2 fold changes over temperatures); higher = more thermally stable than in G1/S.
The subject of data set [3] is HeLa Kyoto. In words: solubility change mitosis vs G1/S (difference of NP-40 vs SDS log2 ratios) (log2 ratio difference); higher = more soluble in mitosis.
The test system of data set [4] is HeLa Kyoto. In words: solubility in G1/S (NP-40 vs SDS abundance) (log2 ratio); higher = more soluble. As to conditions: cell cycle stage: G1/S.
Where [5] appears, read: cell cycle stage: early G1 (4.5 h after nocodazole release).
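Throughout, for melting temperature (median over replicates), in situ: HeLa Kyoto cells synchronized by double thymidine or nocodazole block, proteins quantified by TMT10plex mass spectrometry, three independent biological replicates.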
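Throughout, for solubility change mitosis vs G1/S (difference of NP-40 vs SDS log2 ratios): synchronized HeLa Kyoto cells (double thymidine block for G1/S, nocodazole release for mitosis), protein amounts in NP-40 versus SDS lysates quantified by mass spectrometry, three biological replicates.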
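Throughout, for solubility in G1/S (NP-40 vs SDS abundance): HeLa Kyoto cells arrested at G1/S by double thymidine block, proteins quantified by TMT10plex mass spectrometry in mild NP-40 versus SDS extracts, three biological replicates.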
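Throughout, for thermal stability score vs G1/S (z-score of summed log2 fold changes over temperatures): synchronized HeLa Kyoto cells, proteins quantified by TMT10plex mass spectrometry, three biological replicates, mitosis taken 0.5 h after nocodazole release, G1/S directly after double thymidine block.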

Consider “MSRFPAVAGRAPRRQEEGERSRDLQEERLSAVCIADREEKGCTSQEGGTTPTFPIQKQRKKIIQAVRDNSFLIVTGNTGSGKTTQLPKYLYEAGFSQHGMIGVTQPRKVAAISVAQRVAEEMKCTLGSKVGYQVRFDDCSSKETAIKYMTDGCLLKHILGDPNLTKFSVIILDEAHERTLTTDILFGLLKKLFQEKSPNRKEHLKVVVMSATMELAKLSAFFGNCPIFDIPGRLYPVREKFCNLIGPRDRENTAYIQAIVKVTMDIHLNEMAGDILVFLTGQFEIEKSCELLFQMAESVDYDYDVQDTTLDGLLILPCYGSMTTDQQRRIFLPPPPGIRKCVISTNISATSLTIDGIRYVVDGGFVKQLNHNPRLGLDILEVVPISKSEALQRSGRAGRTSSGKCFRIYSKDFWNQCMPDHVIPEIKRTSLTSVVLTLKCLAIHDVIRFPYLDPPNERLILEALKQLYQCDAIDRSGHVTRLGLSMVEFPLPPHLTCAVIKAASLDCEDLLLPIAAMLSVENVFIRPVDPEYQKEAEQRHRELAAKAGGFNDFATLAVIFEQCKSSGAPASWCQKHWIHWRCLFSAFRVEAQLRELIRKLKQQSDFPKETFEGPKHEVLRRCLCAGYFKNVARRSVGRTFCTMDGRGSPVHIHPSSALHEQETKLEWIIFHEVLVTTKVYARIVCPIRYEWVRDLLPKLHEFNAHDLSSVARREVREDARRRWTNKENVKQLKDGISKDVLKKMQRRNDDKSISDARARFLERKQQRTQDHSDTRKETG [DHX40]”, for which the melting temperature in the data set with HeLa Kyoto [1] (cell cycle stage: G1/S) was found to be 51.7 °C; with HeLa Kyoto [1] (cell cycle stage: mitosis), 50.2 °C. Besides, the thermal stability score is 0.738 with HeLa Kyoto [2] (setting [5]) and 1.62 with HeLa Kyoto [2] (cell cycle stage: mitosis). The “solubility change mitosis (log2)” value in the data set on HeLa Kyoto [3] is -0.071. The “solubility in G1/S (log2)” value in the data set on HeLa Kyoto [4] was -0.176.
With “MSRGGSYPHLLWDVRKRSLGLEDPSRLRSRYLGRREFIQRLKLEATLNVHDGCVNTICWNDTGEYILSGSDDTKLVISNPYSRKVLTTIRSGHRANIFSAKFLPCTNDKQIVSCSGDGVIFYTNVEQDAETNRQCQFTCHYGTTYEIMTVPNDPYTFLSCGEDGTVRWFDTRIKTSCTKEDCKDDILINCRRAATSVAICPPIPYYLAVGCSDSSVRIYDRRMLGTRATGNYAGRGTTGMVARFIPSHLNNKSCRVTSLCYSEDGQEILVSYSSDYIYLFDPKDDTARELKTPSAEERREELRQPPVKRLRLRGDWSDTGPRARPESERERDGEQSPNVSLMQRMSDMLSRWFEEASEVAQSNRGRGRSRPRGGTSQSDISTLPTVPSSPDLEVSETAMEVDTPAEQFLQPSTSSTMSAQAHSTSSPTESPHSTPLLSSPDSEQRQSVEASGHHTHHQSDNNNEKLSPKPGTGEPVLSLHYSTEGTTTSTIKLNFTDEWSSIASSSRGIGSHCKSEGQEESFVPQSSVQPPEGDSETKAPEESSEDVTKYQEGVSAENPVENHINITQSDKFTAKPLDSNSGERNDLNLDRSCGVPEESASSEKAKEPETSDQTSTESATNENNTNPEPQFQTEATGPSAHEETSTRDSALQDTDDSDDDPVLIPGARYRAGPGDRRSAVARIQEFFRRRKERKEMEELDTLNIRRPLVKMVYKGHRNSRTMIKEANFWGANFVMSGSDCGHIFIWDRHTAEHLMLLEADNHVVNCLQPHPFDPILASSGIDYDIKIWSPLEESRIFNRKLADEVITRNELMLEETRNTITVPASFMLRMLASLNHIRADRLEGDRSEGSGQENENEDEE [DCAF6]”, the melting temperature in the data set with HeLa Kyoto [1] (cell cycle stage: G1/S) was 54.7 °C; in the data set on HeLa Kyoto [1] (cell cycle stage: mitosis), 54.9 °C. In addition, the thermal stability score is -1.47 with HeLa Kyoto [2] (setting [5]) and -2.02 with HeLa Kyoto [2] (cell cycle stage: mitosis). The “solubility change mitosis (log2)” value with HeLa Kyoto [3] is 0.0043. Also, the “solubility in G1/S (log2)” value in the data set with HeLa Kyoto [4] is -0.176.
Sequence “MSRHEGVSCDACLKGNFRGRRYKCLICYDYDLCASCYESGATTTRHTTDHPMQCILTRVDFDLYYGGEAFSVEQPQSFTCPYCGKMGYTETSLQEHVTSEHAETSTEVICPICAALPGGDPNHVTDDFAAHLTLEHRAPRDLDESSGVRHVRRMFHPGRGLGGPRARRSNMHFTSSSTGGLSSSQSSYSPSNREAMDPIAELLSQLSGVRRSAGGQLNSSGPSASQLQQLQMQLQLERQHAQAARQQLETARNATRRTNTSSVTTTITQSTATTNIANTESSQQTLQNSQFLLTRLNDPKMSETERQSMESERADRSLFVQELLLSTLVREESSSSDEDDRGEMADFGAMGCVDIMPLDVALENLNLKESNKGNEPPPPPL [KCMF1]” showed a melting temperature with HeLa Kyoto [1] (cell cycle stage: G1/S) of 51.7 °C. The thermal stability score was -1.31 in the data set on HeLa Kyoto [2] (setting [5]) and -1.41 with HeLa Kyoto [2] (cell cycle stage: mitosis). In addition, the “solubility change mitosis (log2)” value with HeLa Kyoto [3] amounted to 0.00437. The “solubility in G1/S (log2)” value with HeLa Kyoto [4] was -0.415.
“MSRLRALLGLGLLVAGSRVPRIKSQTIACRSGPTWWGPQRLNSGGRWDSEVMASTVVKYLSQEEAQAVDQELFNEYQFSVDQLMELAGLSCATAIAKAYPPTSMSRSPPTVLVICGPGNNGGDGLVCARHLKLFGYEPTIYYPKRPNKPLFTALVTQCQKMDIPFLGEMPAEPMTIDELYELVVDAIFGFSFKGDVREPFHSILSVLKGLTVPIASIDIPSGWDVEKGNAGGIQPDLLISLTAPKKSATQFTGRYHYLGGRFVPPALEKKYQLNLPPYPDTECVYRLQ [APOA1BP]”: the values for the melting temperature in the data set with HeLa Kyoto [1] (cell cycle stage: G1/S) and in the data set on HeLa Kyoto [1] (cell cycle stage: mitosis) were 56.4 °C and 55.3 °C, respectively. Moreover, the thermal stability score with HeLa Kyoto [2] (setting [5]) was -2.06; in the data set with HeLa Kyoto [2] (cell cycle stage: mitosis), -3.77. The “solubility change mitosis (log2)” value with HeLa Kyoto [3] worked out at 0.417. Also, the “solubility in G1/S (log2)” value with HeLa Kyoto [4] came to 0.462.
As to “MSRRALRRLRGEQRGQEPLGPGALHFDLRDDDDAEEEGPKRELGVRRPGGAGKEGVRVNNRFELINIDDLEDDPVVNGERSGCALTDAVAPGNKGRGQRGNTESKTDGDDTETVPSEQSHASGKLRKKKKKQKNKKSSTGEASENGLEDIDRILERIEDSTGLNRPGPAPLSSRKHVLYVEHRHLNPDTELKRYFGARAILGEQRPRQRQRVYPKCTWLTTPKSTWPRYSKPGLSMRLLESKKGLSFFAFEHSEEYQQAQHKFLVAVESMEPNNIVVLLQTSPYHVDSLLQLSDACRFQEDQEMARDLVERALYSMECAFHPLFSLTSGACRLDYRRPENRSFYLALYKQMSFLEKRGCPRTALEYCKLILSLEPDEDPLCMLLLIDHLALRARNYEYLIRLFQEWEAHRNLSQLPNFAFSVPLAYFLLSQQTDLPECEQSSARQKASLLIQQALTMFPGVLLPLLESCSVRPDASVSSHRFFGPNAEISQPPALSQLVNLYLGRSHFLWKEPATMSWLEENVHEVLQAVDAGDPAVEACENRRKVLYQRAPRNIHRHVILSEIKEAVAALPPDVTTQSVMGFDPLPPSDTIYSYVRPERLSPISHGNTIALFFRSLLPNYTMEGERPEEGVAGGLNRNQGLNRLMLAVRDMMANFHLNDLEAPHEDDAEGEGEWD [TCF25]”, the melting temperature is 49.4 °C in the data set on HeLa Kyoto [1] (cell cycle stage: G1/S) and 48.4 °C in the data set on HeLa Kyoto [1] (cell cycle stage: mitosis). Also, the thermal stability score was determined as 0.666 in the data set on HeLa Kyoto [2] (setting [5]) and 0.63 with HeLa Kyoto [2] (cell cycle stage: mitosis). For the same sequence, the “solubility change mitosis (log2)” value in the data set on HeLa Kyoto [3] is 0.0389. Further, the “solubility in G1/S (log2)” value in the data set on HeLa Kyoto [4] was found to be 0.0319.
On to “MSSARFDSSDRSAWYMGPVSRQEAQTRLQGQRHGMFLVRDSSTCPGDYVLSVSENSRVSHYIINSLPNRRFKIGDQEFDHLPALLEFYKIHYLDTTTLIEPAPRYPSPPMGSVSAPNLPTAEDNLEYVRTLYDFPGNDAEDLPFKKGEILVIIEKPEEQWWSARNKDGRVGMIPVPYVEKLVRSSPHGKHGNRNSNSYGIPEPAHAYAQPQTTTPLPAVSGSPGAAITPLPSTQNGPVFAKAIQKRVPCAYDKTALALEVGDIVKVTRMNINGQWEGEVNGRKGLFPFTHVKIFDPQNPDENE [CRKL]”, for which the results for the melting temperature in the data set on HeLa Kyoto [1] (cell cycle stage: G1/S) and in the data set with HeLa Kyoto [1] (cell cycle stage: mitosis) were 53 °C and 53.4 °C, respectively. The thermal stability score is -0.327 with HeLa Kyoto [2] (setting [5]) and -0.418 with HeLa Kyoto [2] (cell cycle stage: mitosis). Moreover, the “solubility change mitosis (log2)” value in the data set on HeLa Kyoto [3] came out at 0.0605. For the same sequence, the “solubility in G1/S (log2)” value in the data set with HeLa Kyoto [4] is 0.543.
